System: Escherichia coli TOP10
Test: shrunken log2 fold change of peptide-encoding DNA abundance (4.5 h post-induction vs induction); higher = less antimicrobial activity (less host growth inhibition)
Settings: time post-induction: 4.5 h; library: site-saturation at positions 5, 18, 19, 20
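Note: peptides expressed intracellularly from a pBAD plasmid library in pooled LB shake-flask culture, induced with 0.3% L-arabinose, DNA abundance read by NGS, three biological replicates, DESeq2 with apeglm shrinkage.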

Sequence	shrunken log2 fold change
RRIRFRPPRLPRPRPRPMCIPRP	-0.075
RRIRHRPPRLPRPRPRPHSAPRP	0.0327
RRIRRRPPRLPRPRPRPIHHPRP	-0.207
RRIRFRPPRLPRPRPRPKGPPRP	0.0269
RRIRPRPPRLPRPRPRPGFFPRP	0.216
RRIRDRPPRLPRPRPRPIHIPRP	-0.734
RRIRMRPPRLPRPRPRPDGEPRP	0.857
RRIRIRPPRLPRPRPRPGSEPRP	-0.187
RRIRHRPPRLPRPRPRPSAEPRP	0.217
RRIRQRPPRLPRPRPRPGMYPRP	-0.35
RRIRDRPPRLPRPRPRPDPNPRP	0.00812
RRIRARPPRLPRPRPRPQTRPRP	0.874
RRIRSRPPRLPRPRPRPRGMPRP	0.164
RRIRKRPPRLPRPRPRPVWNPRP	-0.106
RRIRMRPPRLPRPRPRPNTKPRP	-0.0097
RRIRGRPPRLPRPRPRPACWPRP	1.08
RRIRTRPPRLPRPRPRPKRAPRP	0.273
RRIRPRPPRLPRPRPRPYIDPRP	-0.331
RRIRSRPPRLPRPRPRPSGNPRP	-0.571
RRIRIRPPRLPRPRPRPLACPRP	-0.398
RRIRYRPPRLPRPRPRPGWLPRP	0.0173
RRIRTRPPRLPRPRPRPLINPRP	-0.692
RRIRARPPRLPRPRPRPYPHPRP	-0.0654
RRIRKRPPRLPRPRPRPALEPRP	-0.108
RRIRVRPPRLPRPRPRPISVPRP	-0.131

Sequence	shrunken log2 fold change
RRIRDRPPRLPRPRPRPIKVPRP	0.00881
RRIRWRPPRLPRPRPRPCVYPRP	-0.00208
RRIRWRPPRLPRPRPRPMEPPRP	0.0539
RRIRLRPPRLPRPRPRPKTKPRP	-0.021
RRIRTRPPRLPRPRPRPCFYPRP	-0.351
RRIRPRPPRLPRPRPRPHAKPRP	1.39
RRIRQRPPRLPRPRPRPKHRPRP	-0.0509
RRIRTRPPRLPRPRPRPCPFPRP	-0.484
RRIRNRPPRLPRPRPRPWDEPRP	0.0165
RRIRYRPPRLPRPRPRPLLHPRP	-0.541
RRIRPRPPRLPRPRPRPWCYPRP	-0.143
RRIRARPPRLPRPRPRPHVEPRP	0.147
RRIRMRPPRLPRPRPRPFCMPRP	-0.33
RRIRHRPPRLPRPRPRPPQTPRP	-0.00347
RRIRKRPPRLPRPRPRPCTRPRP	-0.103
RRIRWRPPRLPRPRPRPCGYPRP	0.14
RRIRWRPPRLPRPRPRPPHSPRP	0.218
RRIRWRPPRLPRPRPRPPRWPRP	0.591
RRIRIRPPRLPRPRPRPYQRPRP	-0.12
RRIRGRPPRLPRPRPRPKRMPRP	0.675
RRIRERPPRLPRPRPRPDFAPRP	0.159
RRIRLRPPRLPRPRPRPCFFPRP	-0.13
RRIRVRPPRLPRPRPRPYLFPRP	0.0655
RRIRKRPPRLPRPRPRPRMDPRP	0.236
RRIRKRPPRLPRPRPRPCAGPRP	0.257

Sequence	shrunken log2 fold change
RRIRPRPPRLPRPRPRPRARPRP	0.58
RRIRVRPPRLPRPRPRPKLKPRP	0.00388
RRIRVRPPRLPRPRPRPVYWPRP	0.0159
RRIRLRPPRLPRPRPRPLLMPRP	-0.136
RRIRTRPPRLPRPRPRPAFEPRP	0.219
RRIRARPPRLPRPRPRPPKTPRP	0.12
RRIRVRPPRLPRPRPRPYVPPRP	-0.398
RRIRVRPPRLPRPRPRPNVQPRP	-0.0734
RRIRERPPRLPRPRPRPDDQPRP	-0.252
RRIRQRPPRLPRPRPRPDVFPRP	-0.211
RRIRPRPPRLPRPRPRPKQWPRP	-0.22
RRIRARPPRLPRPRPRPGQMPRP	0.0151
RRIRLRPPRLPRPRPRPAFIPRP	-0.116
RRIRERPPRLPRPRPRPDAKPRP	0.0113
RRIRDRPPRLPRPRPRPEPHPRP	0.533
RRIRTRPPRLPRPRPRPHKDPRP	-0.973
RRIRGRPPRLPRPRPRPTWTPRP	1.18
RRIRQRPPRLPRPRPRPAIMPRP	-0.159
RRIRPRPPRLPRPRPRPELEPRP	0.219
RRIRDRPPRLPRPRPRPGDCPRP	0.0646
RRIRCRPPRLPRPRPRPQIPPRP	-0.126
RRIRARPPRLPRPRPRPARGPRP	0.774
RRIRHRPPRLPRPRPRPWWLPRP	-0.0295
RRIRTRPPRLPRPRPRPPEKPRP	0.0774
RRIRHRPPRLPRPRPRPQQFPRP	-0.217

— the supplement of paper PMC9112550, “Optimization of the antimicrobial peptide Bac7 by deep mutational scanning” (BMC Biology, 2022)
